Source: the supplement of paper PMC7125110
± gives the standard error. For part of these data: Variants at the floor of the assay were thinned out.

B1: glmS ribozyme (parent)
chain: AUAAAAGCGCCAGAACUACAGAAAUGUAGUUGACGAGGAGGAGGUUUAUCGAAUUUUCGGCGGAUGCCUCCAAA

Columns and labels:
Details in all cases: with glucosamine-6-phosphate
glucosamine-6-phosphate [1] = variants of: B1; assay: kcat; higher = faster cleavage; RNA array
How it was run: (§1)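 Sequenced MiSeq chips were the platform: E. coli RNA polymerase transcribed barcoded ribozyme variants on them in situ, and a hybridised Cy3 probe tracked these at 37 °C. After glucosamine-6-phosphate (40 μM to 10 mM) in HEPES/KCl/Mg(OAc)2 buffer was flowed in, tiles were imaged over ~14 h. Signals normalised to baseline and to non-cleaving reference variants were reduced to per-tile medians and fit to one- or two-exponential decays to obtain kobs. kcat and KM were derived through weighted Michaelis–Menten fits across concentrations.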

glucosamine-6-phosphate [2] = variants of: B1; assay: KM; higher = weaker cofactor use; RNA array
How it was run: as §1

glucosamine-6-phosphate [3] = variants of: B1; assay: self-cleavage kobs at 40 uM GlcN6P; higher = faster cleavage; RNA array
How it was run: as §1

glucosamine-6-phosphate [4] = variants of: B1; assay: self-cleavage kobs at 160 uM GlcN6P; higher = faster cleavage; RNA array
How it was run: as §1

glucosamine-6-phosphate [5] = variants of: B1; assay: self-cleavage kobs at 640 uM GlcN6P; higher = faster cleavage; RNA array
How it was run: as §1

glucosamine-6-phosphate [6] = variants of: B1; assay: self-cleavage kobs at 2500 uM GlcN6P; higher = faster cleavage; RNA array
How it was run: as §1

glucosamine-6-phosphate [7] = variants of: B1; assay: self-cleavage kobs at 10000 uM GlcN6P; higher = faster cleavage; RNA array
How it was run: as §1

Variant	kcat (glucosamine-6-phosphate [1])	KM (glucosamine-6-phosphate [2])	self-cleavage kobs at 40 uM GlcN6P (glucosamine-6-phosphate [3])	self-cleavage kobs at 160 uM GlcN6P (glucosamine-6-phosphate [4])	self-cleavage kobs at 640 uM GlcN6P (glucosamine-6-phosphate [5])	self-cleavage kobs at 2500 uM GlcN6P (glucosamine-6-phosphate [6])	self-cleavage kobs at 10000 uM GlcN6P (glucosamine-6-phosphate [7])
U54A C70A	0.000115 ± 1.2e-05 s⁻¹	42.6 ± 17 µM	5.92e-05 ± 7.9e-06 s⁻¹	7.42e-05 ± 1.3e-05 s⁻¹	0.000107 ± 1.4e-05 s⁻¹	0.000122 ± 1.5e-05 s⁻¹	
A14U A42G	0.0156 ± 0.0054 s⁻¹	2710 ± 1300 µM	0.000273 ± 3.1e-05 s⁻¹	0.00064 ± 0.00015 s⁻¹	0.00347 ± 0.00055 s⁻¹	0.00517 ± 0.001 s⁻¹	0.0147 ± 0.0018 s⁻¹
A12U G40U U45G	0.00175 ± 0.00051 s⁻¹		0.000216 ± 3.5e-05 s⁻¹		0.000743 ± 0.00024 s⁻¹	0.00239 ± 0.0011 s⁻¹	0.00207 ± 0.00036 s⁻¹
G44A U54C	0.00159 ± 0.00015 s⁻¹	8260 ± 990 µM			0.000114 ± 1.7e-05 s⁻¹	0.000372 ± 6.7e-05 s⁻¹	0.000869 ± 0.00017 s⁻¹
U31G U65C	0.000173 ± 5.1e-05 s⁻¹				4.57e-05 ± 1.5e-05 s⁻¹	6.33e-05 ± 1.4e-05 s⁻¹	0.000136 ± 2e-05 s⁻¹
A14U U47G	0.00156 ± 0.00026 s⁻¹	1750 ± 450 µM	5.6e-05 ± 8.8e-06 s⁻¹	0.000115 ± 1.4e-05 s⁻¹	0.000416 ± 4.8e-05 s⁻¹	0.000947 ± 0.00011 s⁻¹	0.00132 ± 0.00013 s⁻¹
A15C C67G	0.0001315 ± 6.7e-07 s⁻¹	1530 ± 22 µM			3.9e-05 ± 1.4e-05 s⁻¹	8.12e-05 ± 1.4e-05 s⁻¹	0.000114 ± 1.8e-05 s⁻¹
A6C C61A	< 1e-05 s⁻¹		< 1e-05 s⁻¹				< 1e-05 s⁻¹
A39U U69G	6.87e-05 ± 1e-05 s⁻¹				4.85e-05 ± 1.5e-05 s⁻¹	4.76e-05 ± 1.3e-05 s⁻¹	7.29e-05 ± 1.5e-05 s⁻¹
G41C U55A	8.46e-05 ± 5e-06 s⁻¹	1280 ± 280 µM	< 1e-05 s⁻¹			5.87e-05 ± 2e-05 s⁻¹	7.36e-05 ± 2e-05 s⁻¹
C16U C71A	0.00166 ± 0.00032 s⁻¹	298 ± 95 µM	0.000186 ± 2.6e-05 s⁻¹	0.000667 ± 0.00016 s⁻¹	0.00168 ± 0.0003 s⁻¹	0.00113 ± 0.00027 s⁻¹	0.00173 ± 0.00034 s⁻¹
C16A U30C	2.39e-05 ± 3.2e-06 s⁻¹					2.62e-05 ± 9e-06 s⁻¹	2.12e-05 ± 8.1e-06 s⁻¹
A48U U55C	0.000437 ± 6.5e-05 s⁻¹	2190 ± 650 µM			0.000116 ± 2.5e-05 s⁻¹	0.000214 ± 3.6e-05 s⁻¹	0.000378 ± 6.8e-05 s⁻¹
A48U U55G	0.000482 ± 2.4e-05 s⁻¹	3300 ± 360 µM			7.42e-05 ± 2.3e-05 s⁻¹	0.000226 ± 5.6e-05 s⁻¹	0.000359 ± 4.8e-05 s⁻¹
A33U G51A	< 1e-05 s⁻¹	394 ± 130 µM	< 1e-05 s⁻¹				
U30G G37C	1.26e-05 ± 3.7e-06 s⁻¹		< 1e-05 s⁻¹				
A53G A64C	0.000207 ± 2.2e-05 s⁻¹	1870 ± 470 µM			5.95e-05 ± 9.6e-06 s⁻¹	0.000109 ± 1.4e-05 s⁻¹	0.000181 ± 1.9e-05 s⁻¹
A64G U65C C70G	1.52e-05 ± 6.7e-06 s⁻¹						

Variant	kcat (glucosamine-6-phosphate [1])	KM (glucosamine-6-phosphate [2])	self-cleavage kobs at 40 uM GlcN6P (glucosamine-6-phosphate [3])	self-cleavage kobs at 160 uM GlcN6P (glucosamine-6-phosphate [4])	self-cleavage kobs at 640 uM GlcN6P (glucosamine-6-phosphate [5])	self-cleavage kobs at 2500 uM GlcN6P (glucosamine-6-phosphate [6])	self-cleavage kobs at 10000 uM GlcN6P (glucosamine-6-phosphate [7])
C16A U47G	0.000198 ± 3e-05 s⁻¹	631 ± 230 µM		6.15e-05 ± 1.2e-05 s⁻¹	9.31e-05 ± 7.8e-06 s⁻¹	0.000184 ± 2.7e-05 s⁻¹	0.000186 ± 2.3e-05 s⁻¹
U31C A52G	0.000531 ± 5.8e-05 s⁻¹	4640 ± 810 µM		2.13e-05 ± 8.7e-06 s⁻¹	6.14e-05 ± 7.4e-06 s⁻¹	0.000196 ± 2.2e-05 s⁻¹	0.000358 ± 3.4e-05 s⁻¹
G29U G38C C58G C68A C71A	5.03e-05 ± 2.1e-05 s⁻¹					8.03e-05 ± 4e-05 s⁻¹	
U31C C50A	< 1e-05 s⁻¹		< 1e-05 s⁻¹				
G13C A33G	< 1e-05 s⁻¹				< 1e-05 s⁻¹		< 1e-05 s⁻¹
A14U U31C	0.00342 ± 0.00056 s⁻¹	1450 ± 340 µM	0.00012 ± 1.9e-05 s⁻¹	0.000327 ± 3.9e-05 s⁻¹	0.000956 ± 0.00011 s⁻¹	0.00229 ± 0.00027 s⁻¹	0.00303 ± 0.0006 s⁻¹
U31G U56G C71A	0.000443 ± 5.1e-05 s⁻¹	3050 ± 740 µM				0.000191 ± 4.5e-05 s⁻¹	0.00035 ± 9e-05 s⁻¹
U55G C68G	9.78e-05 ± 1e-05 s⁻¹	345 ± 170 µM			6.54e-05 ± 1.3e-05 s⁻¹	7.64e-05 ± 1.5e-05 s⁻¹	0.000104 ± 1.7e-05 s⁻¹
A15U G35A	< 1e-05 s⁻¹		< 1e-05 s⁻¹				< 1e-05 s⁻¹
C11U A53U	0.00137 ± 0.0004 s⁻¹			0.000141 ± 3.8e-05 s⁻¹		0.000587 ± 0.00017 s⁻¹	0.00125 ± 0.00023 s⁻¹
A6U C58G	< 1e-05 s⁻¹		< 1e-05 s⁻¹				< 1e-05 s⁻¹
A53U U57C	0.000173 ± 5.9e-06 s⁻¹	1360 ± 210 µM				0.000115 ± 2.1e-05 s⁻¹	0.000151 ± 1.8e-05 s⁻¹
U69G C71G	5.4e-05 ± 2.4e-05 s⁻¹				9.05e-05 ± 1.6e-05 s⁻¹	3.23e-05 ± 1.5e-05 s⁻¹	
G40A C58U	4.57e-05 ± 1.8e-05 s⁻¹						
C67G C71G	1.33e-05 ± 4.1e-06 s⁻¹						
G29A A48U	0.000327 ± 8.3e-05 s⁻¹						2.73e-05 ± 1.1e-05 s⁻¹
U31G G37C	2.89e-05 ± 1.4e-06 s⁻¹	1380 ± 340 µM	< 1e-05 s⁻¹				
G13C C67A	5.87e-05 ± 1.1e-05 s⁻¹	5930 ± 2600 µM					3.7e-05 ± 9e-06 s⁻¹
